Assay results: the Human Domainome abundance scans (Beltran et al. 2025)

B1: Zinc finger homeobox protein 4, residues 2086 to 2141; numbered along this chain, Q86UP3 (parent)
chain: RPRTRITDDQLKILRAYFDINNSPSEEQIQEMAEKSGLSQKVIKHWFRNTLFKERQ

Variants of: B1
Experiment: abundance fitness (aPCA) (normalised: wild type 0, dead -1); higher = more abundant; growth selection in yeast, the domain comes from the species named
Conditions: Homo sapiens

Abundance fitness, by site and new letter:
Y17: R -0.114; V -0.204; L -0.159; G -0.075; F 0.025; C -0.192; W -0.299; M 0.076; S -0.227; D -0.16; P -0.963; A -0.16; I -0.155; N 0.041; T -0.058; Q -0.089; H -0.045
K12: P -0.16; W -0.379; N -0.007; H -0.34; G -0.146; Y -0.422; I -0.094; C -0.112; D -0.212; Q -0.029; V -0.045; S -0.09; E -0.076; M -0.071; A -0.137; L 0.005; R -0.039
D8: Y -0.238
L14: F -0.304; T -1.01; H -1; Y -1.22; S -1.02; K -1.16; V -0.273; I -0.439; Q -0.866; A -0.865; R -0.949; W -0.777; D -1.19; N -1.18; C -0.671; E -1
Q10: P -0.819; Y -0.498; A -0.461; G -0.514; M -0.323; C -0.277; R -0.526; I -0.462; D -0.125; S -0.172; F -0.616; T -0.245; E -0.383; W -0.817; N -0.099
I13: R -0.223; M -0.057; E -0.17; W -0.136; T 0.043; V -0.027; P -0.612; Q 0.026; D -0.289; S -0.218; H -0.333; A -0.372; Y -0.027; G -0.347; L -0.08; F -0.13; K -0.062
R15: D -0.168; T -0.065; F -0.245; S -0.012; A -0.215; C -0.414; P -0.939; K 0.018; H -0.337; Y -0.2; Q 0.022; V -0.151; E -0.098; M 0.138; N -0.07; I -0.296; L -0.081; W -0.133; G -0.093
D9: W -0.155; T 0.165; F 0.071; G -0.14; A 0.059; V -0.162; H 0.044; K -0.087; Y -0.041; C -0.011; L -0.043; Q -0.083; E -0.003; R -0.134; P -0.002; S 0.084; M -0.084; N 0.047; I -0.026
A16: R 0.096; M 0.124; N 0.16; S 0.129; H 0.108; V -0.211; Y -0.013; D -0.029; P -0.028; C -0.075; G 0.035; T -0.124; I -0.071; L -0.051; Q 0.03; K -0.129; E 0.178
F18: C -0.179; A -0.026; M -0.043; N -0.268; G -0.184; D -0.227; P -0.224; E -0.305; K -0.044; I -0.313
L11: H -0.165; Q -0.147; W -0.205; M -0.148; T -0.115; V -0.18; S -0.043; D -0.069; A -0.193; F -0.134; C -0.392; K 0.138; P -0.769; Y 0.155; N -0.024; R -0.026; E 0.059; I -0.14; G -0.172
